Laboratory results published in paper PMC8136768.

Molecular target: CEBPβ bZIP DNA-binding domain (pXC1599) (Homo sapiens, UniProt P17676 269-344)
Experiment: X-ray crystallography

Chain of CEBPβ bZIP DNA-binding domain (pXC1599) (P17676 269-344): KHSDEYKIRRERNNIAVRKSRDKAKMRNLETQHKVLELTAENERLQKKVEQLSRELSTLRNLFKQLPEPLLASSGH

B1: Crystal 16-mer, T:G mismatch (dsDNA)
DNA 1: AGGATTGTGCAATATA
DNA 2: ATATTGCGCAATCCTT
  binding result: binds
